Test results taken from US20230257479A1 (Genmab, published 2023).
Numbering of substitutions follows the chain as printed. In names and notes the source's numbering stands.

B1: IgG1-5T4-207-FEAR (antibody, V domains shown)
VH: QVQLQQWGAGLLKPSETLSLTCAVYGGSFSGYYWTWIRQPPGKGLEWIGEIDHSESTNYNPSLKSRVTISVDTSKNQFSLKLSSVTAADTAVYYCAGWFGELYHYYYGMDVWGQGTTVTVSS
VL: EIVLTQSPATLSLSPGERATLSCRASQSVSSYLAWYQQKPGQAPRLLIYDASNRATGIPARFSGSGSGTDFTLTISSLEPEDFAVYYCQQRSNWPLTFGGGTKVEIKR
notes: Monospecific, bivalent IgG1 FEAR
B2: IgG1-5T4-226-FEAR (antibody, V domains shown)
VH: B1 VH with T35S, E55G, G97A, Y103W, H104D
VL: EIVLTQSPATLSLSPGERATLSCRASQSVSSFLAWYQQKPGQAPRLLIYDASNRATGIPARFSGSGSGTDFTLTISSLEPEDFAVYYCQQRSNWPLTFGQGTRLEIK
notes: Monospecific, bivalent human IgG1 kappa with L234F, L235E, D265A, K409R (FEAR); also called IgG1-5T4-226-FEAR-FITC

Legend:
[1] = molecular target: T1, full length human 5T4 (SEQ ID NO: 1) on cells (human, UniProt Q13641 32-420); experiment: flow cytometry, MDA-MB-231 cells, FITC secondary [I)A]
T1 construct: Uniprot Q13641; residues 1-31 are the signal peptide; Used both for transfected HEK-293 cells and for 5T4-expressing human tumor cell lines
T1 sequence: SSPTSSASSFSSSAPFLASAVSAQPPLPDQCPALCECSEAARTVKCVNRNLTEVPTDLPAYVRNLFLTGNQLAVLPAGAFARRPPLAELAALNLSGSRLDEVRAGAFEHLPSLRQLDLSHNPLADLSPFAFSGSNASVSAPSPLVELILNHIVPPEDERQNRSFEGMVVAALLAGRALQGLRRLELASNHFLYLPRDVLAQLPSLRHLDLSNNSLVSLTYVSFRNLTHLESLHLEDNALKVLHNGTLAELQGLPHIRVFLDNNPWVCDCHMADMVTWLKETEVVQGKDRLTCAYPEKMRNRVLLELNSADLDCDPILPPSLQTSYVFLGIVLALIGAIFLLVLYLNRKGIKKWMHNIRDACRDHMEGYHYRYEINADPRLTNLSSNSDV
Experimental: (§1) After washing twice in staining buffer, cells were incubated in 50 µL secondary antibody at 4° C. for 30 min. […] Next, cells were washed twice in staining buffer, re-suspended in 120 µL staining buffer and analyzed on a BD LSRFortessa FACS (BD Biosciences, USA). Binding curves were analyzed using non-linear regression (sigmoidal dose-response with variable slope) using GraphPad Prism V7.02 software (GraphPad Software, San Diego, CA, USA).

[2] = molecular target: T2, full length cynomolgus monkey 5T4 on transfected HEK-293 cells (cynomolgus monkey, UniProt Q4R8Y9 35-420); experiment: flow cytometry, HEK-293 cells transfected with cynomolgus monkey 5T4, PE secondary [II)A]
T2 construct: Uniprot Q4R8Y9; residues 1-34 are the signal peptide; also called cynomolgus 5T4
T2 sequence: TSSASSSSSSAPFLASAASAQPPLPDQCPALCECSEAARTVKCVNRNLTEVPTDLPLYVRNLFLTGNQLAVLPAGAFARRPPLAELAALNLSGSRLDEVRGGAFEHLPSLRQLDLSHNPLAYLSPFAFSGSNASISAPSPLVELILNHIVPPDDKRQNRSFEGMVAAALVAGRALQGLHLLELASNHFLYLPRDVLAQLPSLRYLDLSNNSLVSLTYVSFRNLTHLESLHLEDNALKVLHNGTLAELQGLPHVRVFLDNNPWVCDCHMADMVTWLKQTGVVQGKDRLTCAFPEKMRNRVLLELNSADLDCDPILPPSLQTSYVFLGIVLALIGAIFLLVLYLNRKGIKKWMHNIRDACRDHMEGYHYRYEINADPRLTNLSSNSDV

[3] = molecular target: T1, full length human 5T4 (SEQ ID NO: 1) on …; experiment: flow cytometry, HEK-293 cells transfected with human 5T4, FITC secondary [I)A]
Experimental: (§2) Experiments were performed in technical duplicate. After washing twice in staining buffer, cells were incubated in 50 µL secondary antibody at 4° C. for 30 min. […] Cells were washed twice in staining buffer, re-suspended in 30 µL staining buffer and analyzed on an iQue Screener (Intellicyt Corporation, USA). Binding curves were analyzed using non-linear regression (sigmoidal dose-response with variable slope) using GraphPad Prism V7.02 software (GraphPad Software, San Diego, CA, USA).

[4] = molecular target: T2, full length cynomolgus monkey 5T4 on …; experiment: flow cytometry, HEK-293 cells transfected with cynomolgus monkey 5T4, FITC secondary [I)A]
Experimental: as §2

[5] = molecular target: T1, full length human 5T4 (SEQ ID NO: 1) on …; experiment: flow cytometry, HEK-293 cells transfected with human 5T4, PE secondary [II)A]
[6] = molecular target: T1, full length human 5T4 (SEQ ID NO: 1) on …; experiment: flow cytometry, HeLa cells, FITC secondary [I)A]
Experimental: as §1

[7] = molecular target: T1, full length human 5T4 (SEQ ID NO: 1) on …; experiment: flow cytometry, MDA-MB-231 cells, FITC secondary [I)C]
Experimental: Binding of CD3x5T4 bispecific and 5T4 monospecific antibodies to 5T4-positive human tumor cells. Mono- and bivalent binding of 5T4 antibodies to HeLa cells (left panels) or MDA-MB-231 cells (right panels) was determined by flow cytometry. Cells were incubated with increasing concentrations of antibodies. After secondary labelling with FITC-conjugated goat-anti-human IgG F(ab′)2, the MFI was determined by flow cytometry.
as §1

[8] = molecular target: T1, full length human 5T4 (SEQ ID NO: 1) on …; experiment: flow cytometry, HEK-293 cells transfected with human 5T4, PE secondary [II)B]
[9] = molecular target: T1, full length human 5T4 (SEQ ID NO: 1) on …; experiment: flow cytometry, HeLa cells, FITC secondary [I)C]
Experimental: as §1

[10] = molecular target: T1, full length human 5T4 (SEQ ID NO: 1) on …; experiment: flow cytometry, HEK-293 cells transfected with human 5T4, FITC secondary [I)B]
Experimental: as §2

[11] = molecular target: T2, full length cynomolgus monkey 5T4 on …; experiment: flow cytometry, HEK-293 cells transfected with cynomolgus monkey 5T4, PE secondary [II)B]

Row | Binder | EC50 (read off the curve) [1] | EC50 (read off the curve) [2] | EC50 (read off the curve) [3] | EC50 (read off the curve) [4] | EC50 (read off the curve) [5] | EC50 (read off the curve) [6] | EC50 (read off the curve) [7] | EC50 (read off the curve) [8] | EC50 (read off the curve) [9] | EC50 (read off the curve) [10] | EC50 (read off the curve) [11]
1 | B1 | ~0.03 µg/mL | ~0.08 µg/mL | ~0.05 µg/mL | ~0.06 µg/mL | ~0.08 µg/mL | ~0.008 µg/mL | – | – | – | – | –
2 | B2 | – | – | – | – | – | – | ~0.04 µg/mL | ~0.02 µg/mL | ~0.01 µg/mL | ~0.1 µg/mL | ~0.02 µg/mL
